Assay results published in article PMC3221699.
Like-named read-outs stand apart in the source and are kept apart here.

How the values were obtained:
IL-10R1 (Homo sapiens) [1] = biological target: IL-10R1 (Homo sapiens) (UniProt Q13651); settings: cited from earlier work
[2] = biological target: IL-10R1-FC fusion protein (human IL-10R1 extracellular region fused to mouse IgG2a FC) (human) (UniProt Q13651); experiment: SPR; Biacore T200, 20 °C, HBS (10 mM Hepes pH 7.4, 0.15 M NaCl, 0.1% P20, 0.1 mg/mL BSA); IL-10R1-FC captured (~75 RU) by anti-murine FC antibody on a CM5 chip; RhCMVIL-10 (0-100 nM) or M1/M2 (100, 500, 1000 nM) injected at 75 µL/min; global fit to a bivalent analyte model (Rmax, and tc for M1, fixed for the mutants); KD2 called apparent
IL-10R1 (Homo sapiens) [3] = biological target: IL-10R1 (Homo sapiens) (UniProt Q13651); settings: cited from earlier work; remark: listed apart in the source
[4] = biological target: human IL-10R1 chain coupled to agarose beads (human) (UniProt Q13651)
[5] = biological target: Rhesus cytomegalovirus IL-10 (RhCMVIL-10), wild type (rhesus cytomegalovirus (RhCMV) strain 68-1); experiment: SEC; 24 mL Superdex 200 gel filtration column; elution position of affinity purified RhCMVIL-10 compared with cIL-10; fractions analysed by SDS-PAGE

Chain of cIL-10 (P22301 19-178): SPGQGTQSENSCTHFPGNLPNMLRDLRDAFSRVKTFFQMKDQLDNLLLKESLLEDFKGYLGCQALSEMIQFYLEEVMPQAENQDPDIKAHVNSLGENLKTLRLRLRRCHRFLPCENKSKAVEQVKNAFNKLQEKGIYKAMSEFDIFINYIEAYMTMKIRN

cIL-10 (from UniProt P22301)
Kd (IL-10R1 (Homo sapiens) [1]): 1 nM

RhCMVIL-10 mutant 1 (M1; Gln-38Arg, Asp-144His), RhCMVIL-10-FXaH6 (ligand)
KD1 (bivalent analyte model, kd1/ka1) [2]: 43 µM | KD2 (bivalent analyte model, apparent, kd2/ka1) [2]: 410 nM | Rm-obs (maximum RU observed at the highest concentration, 1000 nM) [2]: 0.8 RU | ka1 (bivalent analyte model, first step) [2]: 4620 M⁻¹ s⁻¹ | ka2 (bivalent analyte model, second step) [2]: 0.000232 1/RUs | kd1 (bivalent analyte model, first step) [2]: 0.199 s⁻¹ | kd2 (bivalent analyte model, second step) [2]: 0.00187 s⁻¹

RhCMVIL-10 mutant 2 (M2; Glu-142Gln, Asp-144His), RhCMVIL-10-FXaH6 (ligand)
KD1 (bivalent analyte model, kd1/ka1) [2]: 14.7 µM | KD2 (bivalent analyte model, apparent, kd2/ka1) [2]: 94.4 nM | Rm-obs (maximum RU observed at the highest concentration, 1000 nM) [2]: 3 RU | ka1 (bivalent analyte model, first step) [2]: 14500 M⁻¹ s⁻¹ | ka2 (bivalent analyte model, second step) [2]: 0.000548 1/RUs | kd1 (bivalent analyte model, first step) [2]: 0.212 s⁻¹ | kd2 (bivalent analyte model, second step) [2]: 0.00136 s⁻¹

CMVIL-10 (from UniProt P17150)
Kd (IL-10R1 (Homo sapiens) [3]): 1 nM

H6FXa-RhCMVIL-10 Gln-38Arg (ligand)
proliferation of TF-1/IL-10R1 cells, EC50 relative to RhCMVIL-10 and cIL-10; considerable activity retained at 1,000 ng/ml [4]: 100 fold

H6FXa-RhCMVIL-10 Asp-144His (ligand)
proliferation of TF-1/IL-10R1 cells, EC50 relative to RhCMVIL-10 and cIL-10; considerable activity retained at 1,000 ng/ml [4]: 300 fold

Rhesus cytomegalovirus IL-10 (RhCMVIL-10), wild type (ligand)
stoichiometry N [5]: 2 | KD1 (bivalent analyte model, kd1/ka1) [2]: 0.0651 µM | KD2 (bivalent analyte model, apparent, kd2/ka1) [2]: 1.3 nM | Rm-obs (maximum RU observed at the highest concentration, 100 nM) [2]: 20.9 RU | ka1 (bivalent analyte model, first step) [2]: 1.18e+06 M⁻¹ s⁻¹ | ka2 (bivalent analyte model, second step) [2]: 0.00105 1/RUs | kd1 (bivalent analyte model, first step) [2]: 0.0767 s⁻¹ | kd2 (bivalent analyte model, second step) [2]: 0.00155 s⁻¹
